From the supplement of paper PMC10567573

B1: ATL3 (parent)
chain: YGLQGGMAFLDKRLQVKEHQHEEI

Variants of: B1
Experiment: protein stability index of a GFP-peptide fusion (GPS, HEK-293T) (PSI 1-6); higher = more stable
Details: c terminus: a fixed tail appended
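Note: lentivirally expressed fusions sorted by FACS into six bins by GFP to DsRed ratio, PSI derived from sequencing read proportions per bin multiplied by bin number.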

Protein stability index: each site, then its substitutions
G5: T 3.18; M 2.1; N 2.44; R 2.39; E 3.15; Y 2.66; C 1.92; D 2.34; S 2.25
G6: A 3.1; M 2.26; T 1.73; H 1.63; L 3.04; E 2.41
E23: W 2.57; L 2.25; K 2.43; M 3.12; H 2.38; D 3.04; P 3.04
R13: D 1.52; N 2.87; C 2.56; M 2.04; A 2.47; Y 1.34; K 2.84; T 2.28
V16: W 2.33; R 2.02; G 1.77; A 2.7; Y 3.04; D 2.08; H 1.91; T 2.3
D11: A 1.65; W 2.01; T 2.16; N 1.81; R 1.95; M 2.22; P 2.33; S 1.91
K12: Y 2.73; I 3.88; F 3.37; T 1.79; N 2.91; L 3.83; W 2.44; V 2.62
I24: C 3.25; N 2.89; D 2.33; T 1.79; G 3.23
E22: F 2.03; S 3.33; R 2.16; I 2.94; P 2.96; W 2.76; T 1.9; Q 1.75
L3: N 2.45; K 2.93; H 2.81; A 1.92; G 2.46; I 2.2; M 2.31; F 2.76
L14: M 2.07; Q 1.52; V 2.45; G 3.93; N 1.77; C 3.61; E 2.55
Y1: F 2.51; S 4.46; T 4.08; D 5.03; C 2.19; E 4.35
F9: N 4.51; D 4.88; V 4.23; I 3.82; Q 4.42; T 4.58; R 3.79
Q15: V 2.9; I 2.64; Y 2.44; S 3.92; A 3.14
H19: P 2.5; W 3.59; D 3.38; Q 2.48; A 2.74; K 2.25
K17: C 2.17; V 2.42; W 2.2; Y 3.11
H21: A 2.51; V 2.1; E 3.27; I 3.39; M 2.2; Q 2.44; R 3.51; D 2.11; C 2.48
L10: A 3.49; F 2.03; C 3.07; E 3.82; T 2.35
G2: A 2.28; H 2.3; W 2.37; T 2.05; E 3.28; D 3.52
A8: D 3.79; L 2.67; N 2.33; G 2.81; R 1.74; W 3.35; H 1.4; S 2.09; I 2.71; V 2.42
M7: Q 1.03; D 2.16; G 2.02; W 1.47; V 2.52; Y 1.93
Q4: F 2.32; N 3.07; C 3.19; S 2.16; P 2.37; A 3.19; M 2.83
Q20: N 2.86; S 2.12; A 2.87; Y 2.58; D 3.09; T 2.2; F 3.31; E 2.5
E18: D 2.19; S 1.73; P 2.37; T 2.4; V 1.9; R 2.19
